According to patent US20240327535A1 (EISAI R AND D MANAGEMENT, published 2024):
Changes are numbered by the printed parent chain.

T1: extracellular domain of human BCMA (human, UniProt Q02223 1-54)
T1 construct: amine-linked to Octet AR2G tips; also called hsBCMA; BCMA (human)
T1 sequence: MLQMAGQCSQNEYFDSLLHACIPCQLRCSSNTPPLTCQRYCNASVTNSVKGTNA

B1: AB200-(2Vk30)_R2-VH-v51 (Fab, V domains shown)
VH: QVQLVQSGAEVKKPGSSVKVSCKASGGSFSNYWIHWVRQAPGQGLEWMGGTYRIQSDTYYNQKFKSRVTITADKSTSTAYMELSSLRSEDTAVYYCARGAIYHGYDVIENWGQGTLVTVSS
VL: DIQMTQSPSSLSASVGDRVTITCRASQSISSYLNWYQQKPGKAPKLLIYATSNLQIGVPSRFSGSGSGTDFTLTISSLQPEDFATYYCQQYRRIPWTFGQGTKLEIKR
B2: AB200-(2Vk30)_R2-VH-v74 (Fab, V domains shown)
VH: B1 VH with S28T, G50A, Q55H, N61A, Q62E, Y105F, E109D
VL: B1 VL
B3: AB200-(2Vk30)_R2-VH-v59 (Fab, V domains shown)
VH: B1 VH with S28T, Q55H, N61A
VL: B1 VL
B4: AB200-(2Vk30)_R2-VH-v71 (Fab, V domains shown)
VH: B1 VH with S28T, G50A, Q55H, Y59N, Q62E, Y102F, E109D
VL: B1 VL
B5: AB200-(2Vk30)_R2-VH-v65 (Fab, V domains shown)
VH: B1 VH with S28T, G50A, D57T, Y105F, E109D
VL: B1 VL
B6: AB200-(2Vk30)_R2-VH-v67 (Fab, V domains shown)
VH: B1 VH with S28T, G50A, Q55H, D57T, Q62E, I101V, E109D
VL: B1 VL
B7: AB200-(2Vk35)_R2-VH-v8 (Fab, V domains shown)
VH: B1 VH with S28T, F29Y, I54S, Y105F, E109D
VL: B1 VL with L33I, I56S
B8: AB200-(2Vk35)_R2-VH-v63 (Fab, V domains shown)
VH: B1 VH with S28T, G50A, Q55H, D57T, Y59N, K74E, I101V, E109D
VL: B1 VL with L33I, I56S
B9: AB200-(2Vk35)_R2-VH-v76 (Fab, V domains shown)
VH: B1 VH with S28T, G50A, Q62E, Y105F, E109D
VL: B1 VL with L33I, I56S
B10: AB200-(2Vk35)_R2-VH-v9 (Fab, V domains shown)
VH: B1 VH with S28T, F29Y, G50A, I54S, Y59N, Y105F, E109D
VL: B1 VL with L33I, I56S
B11: AB200-(2Vk35)_R2-VH-v26 (Fab, V domains shown)
VH: B1 VH with S28T, G50A, I54S, Q55H, D57T, N61A, Y102F, E109D
VL: B1 VL with L33I, I56S
B12: AB200-(2Vk35)_R2-VH-v52 (Fab, V domains shown)
VH: B1 VH with G50A, N61A, Y102F, E109D
VL: B1 VL with L33I, I56S
B13: AB200-(2Vk35)_R2-VH-v11 (Fab, V domains shown)
VH: B1 VH with S28T, F29Y, G50A, I54S, Q55H, Y59N, Q62E, I101V, E109D
VL: B1 VL with L33I, I56S
B14: AB200-(2Vk35)_R2-VH-v56 (Fab, V domains shown)
VH: B1 VH with G50A, Q55H, N61A, F64Y, Y102F, E109D
VL: B1 VL with L33I, I56S
B15: AB200-(2Vk35)_R2-VH-v48 (Fab, V domains shown)
VH: B1 VH with S28T, F29Y, Q55H, D57T, Y105F, E109D
VL: B1 VL with L33I, I56S
B16: AB200-(2Vk35)_R2-VH-v62 (Fab, V domains shown)
VH: B1 VH with S28T, Q55H, Q62E
VL: B1 VL with L33I, I56S
B17: AB200-(2Vk35)_R2-VH-v32 (Fab, V domains shown)
VH: B1 VH with S28T, G50A, I54S, Q55H, Y59N, F64Y, Y102F, E109D
VL: B1 VL with L33I, I56S
B18: AB200-(2Vk35)_R2-VH-v49 (Fab, V domains shown)
VH: B1 VH with S28T, F29Y, G50A, D57T
VL: B1 VL with L33I, I56S
B19: AB200-(2Vk35)_R2-VH-v15 (Fab, V domains shown)
VH: B1 VH with G50A, I54S, D57T, Y102F, E109D
VL: B1 VL with L33I, I56S
B20: AB200-(2Vk35)_R2-VH-v38 (Fab, V domains shown)
VH: B1 VH with S28T, G50A, I54S, Q62E, Y105F, E109D
VL: B1 VL with L33I, I56S
B21: AB200-(2Vk35)_R2-VH-v36 (Fab, V domains shown)
VH: B1 VH with S28T, G50A, I54S, Q55H, N61A, Q62E, Y102F, E109D
VL: B1 VL with L33I, I56S
B22: AB200-(2Vk35)_R2-VH-v55 (Fab, V domains shown)
VH: B1 VH with G50A, Q55H, D57T, F64Y, I101V, E109D
VL: B1 VL with L33I, I56S
B23: AB200-(2Vk35)_R2-VH-v46 (Fab, V domains shown)
VH: B1 VH with S28T, F29Y, G50A, Y59N
VL: B1 VL with L33I, I56S
B24: AB200-(2Vk35)_R2-VH-v69 (Fab, V domains shown)
VH: B1 VH with S28T, G50A, Y59N, I101V, E109D
VL: B1 VL with L33I, I56S
B25: AB200-(2Vk44)_R2-VH-v64 (Fab, V domains shown)
VH: B1 VH with S28T, G50A, Q55H, D57T, N61A, Y105F, E109D
VL: B1 VL with L33I, I94L, T97S
B26: AB200-(2Vk44)_R2-VH-v53 (Fab, V domains shown)
VH: B1 VH with G50A, Q55H, Y59N, F64Y, Y102F, E109D
VL: B1 VL with L33I, I94L, T97S
B27: AB200-(2Vk44)_R2-VH-v44 (Fab, V domains shown)
VH: B1 VH with S28T, S30T, G50A, Q55H, Y59N, N61A
VL: B1 VL with L33I, I94L, T97S
B28: AB200-(2Vk44)_R2-VH-v7 (Fab, V domains shown)
VH: B1 VH with S28T, F29Y, G50A, I54S, Q55H, D57T, N61A, Y105F, E109D
VL: B1 VL with L33I, I94L, T97S
B29: AB200-(2Vk44)_R2-VH-v1 (Fab, V domains shown)
VH: B1 VH with S28T, S30T, I54S, Q55H, F64Y
VL: B1 VL with L33I, I94L, T97S
B30: AB200-(2Vk44)_R2-VH-v35 (Fab, V domains shown)
VH: B1 VH with S28T, G50A, I54S, Q55H, N61A, F64Y
VL: B1 VL with L33I, I94L, T97S
B31: AB200-(2Vk44)_R2-VH-v68 (Fab, V domains shown)
VH: B1 VH with S28T, G50A, Q55H, Y59N, N61A, K74E, Y105F, E109D
VL: B1 VL with L33I, I94L, T97S
B32: AB200-(2Vk44)_R2-VH-v28 (Fab, V domains shown)
VH: B1 VH with S28T, G50A, I54S, Q55H, D57T, F64Y, Y105F, E109D
VL: B1 VL with L33I, I94L, T97S
B33: AB200-(2Vk44)_R2-VH-v14 (Fab, V domains shown)
VH: B1 VH with G50A, I54S, Q55H, D57T, Q62E, I101V, E109D
VL: B1 VL with L33I, I94L, T97S
B34: AB200-(2Vk44)_R2-VH-v58 (Fab, V domains shown)
VH: B1 VH with S28T, Q55H, Y59N, Y105F, E109D
VL: B1 VL with L33I, I94L, T97S
B35: AB200-(2Vk44)_R2-VH-v61 (Fab, V domains shown)
VH: B1 VH with S28T, Q55H, F64Y
VL: B1 VL with L33I, I94L, T97S
B36: AB200-(2Vk44)_R2-VH-v41 (Fab, V domains shown)
VH: B1 VH with S28T, S30T, Q55H, Q62E, Y105F, E109D
VL: B1 VL with L33I, I94L, T97S
B37: AB200-(2Vk44)_R2-VH-v54 (Fab, V domains shown)
VH: B1 VH with G50A, Q55H, Y59N, Q62E
VL: B1 VL with L33I, I94L, T97S
B38: AB200-(2Vk44)_R2-VH-v22 (Fab, V domains shown)
VH: B1 VH with S28T, I54S, I101V, E109D
VL: B1 VL with L33I, I94L, T97S
B39: AB200-(2Vk44)_R2-VH-v24 (Fab, V domains shown)
VH: B1 VH with S28T, I54S, Q55H, Q62E, Y102F, E109D
VL: B1 VL with L33I, I94L, T97S
B40: AB200-(2Vk44)_R2-VH-v60 (Fab, V domains shown)
VH: B1 VH with S28T
VL: B1 VL with L33I, I94L, T97S

molecular target: T1, extracellular domain of human BCMA; experiment: Octet BLI; Fab 200 nM

Row | Binder | Kd [nM]
1 | B1 | 20.3
2 | B2 | 2.17
3 | B3 | 37.8
4 | B4 | 29.7
5 | B5 | 27.3
6 | B6 | 16.8

molecular target: T2, extracellular domain of rhesus monkey BCMA (rhesus monkey, UniProt F7FFA0 1-53); experiment: Octet BLI; Fab 200 nM
T2 construct: extracellular domain; also called RhBCMA
T2 sequence (F7FFA0 entry or part of it): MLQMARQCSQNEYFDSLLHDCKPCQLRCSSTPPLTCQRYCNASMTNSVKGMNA

Row | Binder | Kd [nM]
7 | B1 | 68.9
8 | B2 | 9.83
9 | B3 | 121
10 | B4 | 64.1
11 | B5 | 46.8
12 | B6 | 35.7

molecular target: T1, extracellular domain of human BCMA; experiment: Octet BLI; Fab 200 nM; remark: another data set of the same source

Row | Binder | Kd [nM]
13 | B7 | 12.1
14 | B8 | 27.1
15 | B9 | 1.93
16 | B10 | 49.3
17 | B11 | 20.9
18 | B12 | 6.24
19 | B13 | 47
20 | B14 | 11.3
21 | B15 | 36.6
22 | B16 | 14.5
23 | B17 | 29.1
24 | B18 | 63.2
25 | B19 | 25.5
26 | B20 | 1.89
27 | B21 | 3.15
28 | B22 | 19.7
29 | B23 | 103
30 | B24 | 16.2

molecular target: T2, extracellular domain of rhesus monkey …; experiment: Octet BLI; Fab 200 nM; remark: another data set of the same source

Row | Binder | Kd [nM]
31 | B7 | 38
32 | B8 | 9.56
33 | B9 | 8.46
34 | B10 | 103
35 | B11 | 40.7
36 | B12 | 25.7
37 | B13 | 130
38 | B14 | 44.7
39 | B15 | 52
40 | B16 | 49
41 | B17 | 67.3
42 | B18 | 126
43 | B19 | 48.6
44 | B20 | 9.59
45 | B21 | 14.8
46 | B22 | 43.1
47 | B23 | 287
48 | B24 | 46.6

molecular target: T1, extracellular domain of human BCMA; experiment: Octet BLI; Fab 200 nM; remark: another data set of the same source

Row | Binder | Kd [nM]
49 | B25 | 22.1
50 | B26 | 52.5
51 | B27 | 86.4
52 | B28 | 40.6
53 | B29 | 11.8
54 | B30 | 16.2
55 | B31 | 60.3
56 | B32 | 10.9
57 | B33 | 7.55
58 | B34 | 27.2
59 | B35 | 19.2
60 | B36 | 3.73
61 | B37 | 68.8
62 | B38 | 2.31
63 | B39 | 6.44
64 | B40 | 11.1

molecular target: T2, extracellular domain of rhesus monkey …; experiment: Octet BLI; Fab 200 nM; remark: another data set of the same source

Row | Binder | Kd [nM]
65 | B25 | 36.5
66 | B26 | 103
67 | B27 | 290
68 | B28 | 71.7
69 | B29 | 40
70 | B30 | 52.8
71 | B31 | 110
72 | B32 | 20.9
73 | B33 | 16.9
74 | B34 | 52.6
75 | B35 | 59.6
76 | B36 | 12.6
77 | B37 | 151
78 | B38 | 11.1
79 | B39 | 20.8
80 | B40 | 38.6
